Test results as given in patent publication US20040044182A1 (published 2004).

Biological target: T1, β2m (12 kDa non-polymorphic light chain) (human, UniProt P61769 21-119)
T1 construct: No recombinant β2m was added; It came from the human HEK293 cells and co-purified under native conditions; also called beta-2-microglobulin
Assay: immunoblot of the purified protein with anti-β2m antibody (co-purification under native conditions)
Experimental: Human leukocyte antigens are heterodimeric molecules comprised of glycosylated heavy chains non-covalently associated with a 12 kDa non-polymorphic light chain called β2m. PurifiedrsHLA-G1 (10 to 100 ng) and rsHLA-G2 (10 to 1000 ng) were separated on 15% SDS-PAGE, transferred to nitrocellulose membranes and immuno-detected with anti-Flag M1 antibody or anti-β2m, as shown in FIG. 6. Only rsHLA-G1 was positive for β2m. […] To produce the immunoblot of FIG. 6, purified recombinant sHLA-G1 (10-100 ng) and purified recombinant sHLA-G2 (10-1000 ng) were separated using 15% PAGE-SDS and electrotransferred to nitrocellulose membranes. One blot was detected with anti-Flag-M1 antibody and the other with a mouse anti-β2m. This experiment provides evidence that sBLA-G2 is produced as free alpha chains, while sHLA-G1 is bound to β2m.

T1 sequence (P61769 21-119 limits assumed): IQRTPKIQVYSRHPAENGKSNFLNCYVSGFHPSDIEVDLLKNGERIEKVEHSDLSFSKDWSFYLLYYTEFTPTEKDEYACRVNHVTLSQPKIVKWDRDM

B1: recombinant soluble HLA-G2 (other)
MHC heavy: APLADYKDDDDKLAGSHSMRYFSAAVSRPGRGEPRFIAMGYVDDTQFVRFDSDSACPRMEPRAPWVEQEGPEYWEEETRNTKAHAQTDRMNLQTLRGYYNQSEANPPKTHVTHHPVFDYEATLRCWALGFYPAEIILTWQRDGEDQTQDVELVETRPAGDGTFQKWAAVVVPSGEEQRYTCHVQHEGLPEPLMLRWSKEGDGGIMSVRESRSLSEDL
modifications: glycosylated
notes: Secreted from HEK293 cells; The first amino acid of the α3 domain is asparagine, not aspartic acid as in sHLA-G1; Produced as free alpha chains; also called rsHLA-G2; sHLA-G2
**Q.** Does B1 bind?
**A.** no binding (tested: up to 1 µg)
